The assay deals with centromere-binding factor 1 (CBF1) (human) (UniProt Q06330). The assay is described as follows: cell-based or functional assay.

This note sets out measurements from patent US20080045445A1.

Sequence of centromere-binding factor 1 (CBF1) (human) (Q06330 whole entry): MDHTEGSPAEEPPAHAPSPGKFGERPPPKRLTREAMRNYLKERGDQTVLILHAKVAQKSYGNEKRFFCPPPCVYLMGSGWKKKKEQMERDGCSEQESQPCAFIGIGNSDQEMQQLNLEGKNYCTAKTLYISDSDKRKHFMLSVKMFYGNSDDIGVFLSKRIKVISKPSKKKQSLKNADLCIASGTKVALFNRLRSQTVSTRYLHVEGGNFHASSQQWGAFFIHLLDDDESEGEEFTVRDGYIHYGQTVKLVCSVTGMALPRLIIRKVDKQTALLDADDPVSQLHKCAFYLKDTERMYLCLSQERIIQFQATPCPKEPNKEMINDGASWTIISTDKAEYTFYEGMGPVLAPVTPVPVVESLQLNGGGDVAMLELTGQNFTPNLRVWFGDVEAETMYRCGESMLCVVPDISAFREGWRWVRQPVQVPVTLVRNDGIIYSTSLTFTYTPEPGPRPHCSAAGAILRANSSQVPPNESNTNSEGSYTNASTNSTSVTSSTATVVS

Consider “Notch1 intracellular domain (NICD) (from UniProt P46531 1754-2555) (receptor)”, for which the luciferase activity (CBF1 binding site reporter, wild-type/mutant, relative to beta-galactosidase) is 5 fold.
